Reference: US20190298770A1 (IOVANCE BIOTHERAPEUTICS, published 2019)

Tests used:
[1] = molecular target: T1, Programmed Death 1 Ligand 1 (PD-L1) (human, UniProt Q9NZQ7 19-290); assay: flow cytometry of 293-PD-L1 stained with 10 fold concentrated supernatant of TIL line M1015, Alexa 647 anti-human Fcγ [panel C]
T1 construct: also called CD274; B7-H1

[2] = molecular target: T1, Programmed Death 1 Ligand 1 (PD-L1); assay: flow cytometry on EL4 PD-L1 cells, goat anti-human FITC, % of PD-L1 positive cells

T1 sequence (Q9NZQ7 19-290): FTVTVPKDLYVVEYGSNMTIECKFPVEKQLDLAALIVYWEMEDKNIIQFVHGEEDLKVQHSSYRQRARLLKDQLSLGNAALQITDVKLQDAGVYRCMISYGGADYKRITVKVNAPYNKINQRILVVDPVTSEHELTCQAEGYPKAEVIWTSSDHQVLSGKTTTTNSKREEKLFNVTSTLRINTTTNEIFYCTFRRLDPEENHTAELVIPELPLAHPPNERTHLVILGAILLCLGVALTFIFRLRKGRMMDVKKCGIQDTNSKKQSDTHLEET

FMC63-scFV-Fc (Fc fusion) was tested, and the % of cells in the upper left (PDL1 positive) quadrant [1] was 1.02%.

B1: anti-PD-L1 ScFV clone 19H9 (scFv)
scFv: QVQLQESGGGLVKPGGSLRLSCAASGFTFSSYSMNWVRQAPGKGLEWVSGINTAGDTHYPESVKGRFTISRDNARNSLNLQMNSLRAEDTAVYYCVRERVEREYSGYDAFDIWGQGTTVTVSAGGGGSGGGGSGGGGSGAPNFMLTQPHSVSESLGKTVTISCTGSSGSIARKFVQWYQQRPGSSPTTVIYENNQRPSGVSDRFSGSIGSSSNSASLTISGLKTEDEADYYCQSYDSSNVVFGGGTKVTVL
notes: also called 19H9-scFV; scFV 19H9
B1: binds [2].

B2: anti-PD-L1 ScFV clone 38A1 (scFv)
scFv: EVQLVESGGGLVQPGGSLRLSCAASGFTFSNYAMSWVRQAPGKGLEWVSTISGSGGTTYYADSVKGRFTISRDNSKNTLYLQMNSLRVEDTAVYYCAKDWFRSSSPDAFDIWGQGTTVTVSAGGGGSGGGGSGGGGSGAPSYVLTQPPSVSVAPGQTARITCGGNNIGRKIVHWYQQRPGQAPVLVIYYDTDRPAGIPERFSGSNSGNMATLTISTVGAGDEADYYCQVWDTGSDHVVFGGGTKLTVL
notes: also called 38A1-scFV; scFV 38A1
B2: binds [2].
